Read-outs that look alike come from different tables or passages of the source.

Here are results for three molecules from patent US20220220224A1 (Hoffmann-La Roche, published 2022).

Assay [1] deals with T1, human FolR1 expressed on cells (HeLa, SKOV3, HT-29, transfected HEK cells) (human, UniProt P15328 25-234). The experiment in a line: cell-based or functional assay.
The target in assay [2] is T1, human FolR1 expressed on cells (HeLa, …). The experiment in a line: cell-based or functional assay. The source holds these as a separate data set.
The target of assay [3] is T2, recombinant biotinylated monomeric Fc fusion of human Folate Receptor 1 (huFolR1 ECD-AcTev-Fcknob-Avi tag … (human, UniProt P0DOX5 223-449 = IgG part, biotin on the C-terminal Avi tag)).
T2 construct: also called huFolR1-Fc; human FolR1-Fc
The assay is described as follows: SPR Biacore, avidity (bivalent). A general note: SPR reads the build-up and loss of mass on a sensor chip optically.

For assay [4], the target named is T2, recombinant biotinylated monomeric Fc …. The experiment in a line: SPR Biacore, affinity (monovalent).
In assay [5] the target is T3, recombinant biotinylated monomeric Fc fusion of murine Folate Receptor 1 (mu FolR1 ECD-AcTev-Fcknob-Avitag … (murine, UniProt P0DOX5 223-449 = IgG part, biotin on the C-terminal Avi tag)).
T3 construct: also called muFolR1-Fc; murine FolR1
The assay is described as follows: SPR Biacore, single injection on immobilized antigen-Fc. The procedure:
(§1) All SPR experiments were performed on a Biacore T200 at 25° C. with HBS-EP as running buffer (0.01 M HEPES pH 7.4, 0.15 M NaCl, 3 mM EDTA, 0.005% Surfactant P20, Biacore, GE Healthcare). The molecules used for affinity and avidity determination are described in Table 45.
(§2) First the anti-FolR1 TCBs were analyzed by single injections (Table 46) to characterize their crossreactivity (to human, murine and cyno FolR1) and specificity (to human FolR1, human FolR2, human FolR3). Recombinant biotinylated monomeric Fc fusions of human, cynomolgus and murine Folate Receptor 1 (FolR1-Fc) or human Folate Receptor 2 and 3 (FolR2-Fc, FolR3-Fc) were directly coupled on a SA chip using the standard coupling instruction (Biacore, Freiburg/Germany). The immobilization level was about 300-400 RU. The TCBs were injected for 60 seconds at a concentration of 500 nM.

The target in assay [6] is T4, recombinant biotinylated monomeric Fc fusion of human Folate Receptor 2 (hu FolR2 ECD-AcTev-Fcknob-Avi tag … (human, UniProt P0DOX5 223-449 = IgG part, biotin on the C-terminal Avi tag)).
T4 construct: also called FolR2-Fc
The assay is described as above. The procedure:
as §1, §2

Assay [7] concerns the target T5, recombinant biotinylated monomeric Fc fusion of human Folate Receptor 3 (hu FolR3 ECD-AcTev-Fcknob-Avi tag … (human, UniProt P0DOX5 223-449 = IgG part, biotin on the C-terminal Avi tag)).
T5 construct: also called FolR3-Fc
The description is as above. The procedure:
as §1, §2

The target in assay [8] is T2, recombinant biotinylated monomeric Fc …. The experiment in a line: SPR Biacore, avidity (bivalent, apparent KD), antigen-Fc on SA chip.
Assay [9] addresses T6, recombinant biotinylated monomeric Fc fusion of cynomolgus Folate Receptor 1 (cy FolR1 ECD-AcTev-Fcknob-Avi … (cynomolgus, UniProt P0DOX5 223-449 = IgG part, biotin on the C-terminal Avi tag)).
T6 construct: also called cyFolR1-Fc; cyno FolR1
The description is as above.

Assay [10] concerns the target T2, recombinant biotinylated monomeric Fc …. The assay is described as follows: SPR Biacore, affinity (monovalent), antibody captured via anti-Fab, steady state analysis. The method, then: as §1
(§3) For affinity measurement, direct coupling of around 12000 resonance units (RU) of the anti-human Fab specific antibody (Fab capture kit, GE Healthcare) was performed on a CM5 chip at pH 5.0 using the standard amine coupling kit (GE Healthcare). Anti-FolR1 T cell bispecifics were captured at 20 nM with a flow rate of 10 μl/min for 40 sec, the reference flow cell was left without capture. […] The dissociation phase was monitored for 300 s and triggered by switching from the sample solution to HBS-EP. The chip surface was regenerated after every cycle using a double injection of 60 sec 10 mM Glycine-HCl pH 2.1. Bulk refractive index differences were corrected for by subtracting the response obtained on the reference flow cell 1. The affinity constants for the interactions were derived from the rate constants by fitting to a 1:1 Langmuir binding using the Bia Evaluation software (GE Healthcare). For low affinity kinetics with association and dissociation phases too fast to be fitted by the 1:1 Langmuir binding model, the steady state analysis model was applied using the Bia Evaluation software (GE Healthcare). The steady state analysis gives the KD of the binding reaction at equilibrium.

The target of assay [11] is T6, recombinant biotinylated monomeric Fc …. The description is as above. The method, then:
as §1, §3

Assay [12] addresses T2, recombinant biotinylated monomeric Fc …. The experiment in a line: SPR Biacore, avidity set-up, steady state. The procedure: (§4) The avidity of the interaction between the anti-FolR1 IgGs or T cell bispecifics and the recombinant folate receptors was determined as described below (Table 41).
(§5) Recombinant biotinylated monomeric Fc fusions of human, cynomolgus and murine Folate Receptor 1 (FolR1-Fc) were directly coupled on a SA chip using the standard coupling instruction (Biacore, Freiburg/Germany). The immobilization level was about 300. […] The dissociation was monitored for 240 or 600 seconds. Bulk refractive index differences were corrected for by subtracting the response obtained on reference flow cell immobilized with recombinant biotinylated murine IL2 receptor Fc fusion. The binding curves resulting from the bivalent binding of the IgG or T cell bispecifics were approximated to a 1:1 Langmuir binding (even though it is a 1:2 binding) and fitted with that model to get an apparent KD representing the avidity of the bivalent binding. The apparent avidity constants for the interactions were derived from the rate constants of the fitting using the Bia Evaluation software (GE Healthcare). For low affinity kinetics with association and dissociation phases too fast to be fitted by the 1:1 Langmuir binding model, the steady state analysis model was applied using the Bia Evaluation software (GE Healthcare). The steady state analysis gives the KD of the binding reaction at equilibrium.

The target of assay [13] is T6, recombinant biotinylated monomeric Fc …. The experiment in a line: SPR Biacore, avidity set-up, steady state. The procedure:
as §4, §5

The target of assay [14] is T2, recombinant biotinylated monomeric Fc …. The experiment in a line: SPR Biacore, avidity (bivalent, apparent KD), antigen-Fc on SA chip. The procedure:
as §4, §5
This is another data set of the same source.

For assay [15], the target named is T6, recombinant biotinylated monomeric Fc …. The description is as above. The procedure: as §4, §5
The source holds these as a separate data set.

Assay [16] concerns the target T2, recombinant biotinylated monomeric Fc …. The assay is described as follows: SPR Biacore, affinity (monovalent), antibody captured via anti-Fab, steady state. The method, then:
The affinity of the interaction between the anti-FolR1 IgGs or the T cell bispecifics and the recombinant folate receptors was determined as described below (Table 42).
For affinity measurement, direct coupling of around 10000 resonance units (RU) of the anti-human Fab specific antibody (Fab capture kit, GE Healthcare) was performed on a CM5 chip at pH 5.0 using the standard amine coupling kit (GE Healthcare). Anti-FolR1 IgGs or T cell bispecifics were captured at 200 nM with a flow rate of 10 ul/min for 40 sec, the reference flow cell was left without capture. Dilution series (12.35 to 3000 nM) of human Folate Receptor 1 Fc fusion were passed on all flow cells at 30 μl/min for 240 sec to record the association phase. The dissociation phase was monitored for 300 s and triggered by switching from the sample solution to HBS-EP. The chip surface was regenerated after every cycle using a double injection of 60 sec 10 mM Glycine-HCl pH 1.5. Bulk refractive index differences were corrected for by subtracting the response obtained on the reference flow cell 1. […]

T1 sequence (P15328 25-234): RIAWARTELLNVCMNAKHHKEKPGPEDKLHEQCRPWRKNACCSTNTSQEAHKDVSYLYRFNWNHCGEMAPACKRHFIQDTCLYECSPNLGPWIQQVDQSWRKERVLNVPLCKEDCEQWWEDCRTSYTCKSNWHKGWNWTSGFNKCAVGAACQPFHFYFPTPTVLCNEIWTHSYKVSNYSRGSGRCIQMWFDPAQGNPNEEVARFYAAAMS

B1: 16D5 W96Y/D52E TCB (2+1 inverted, common light chain) (bispecific antibody)
heavy 1: not shown
heavy 2: not shown
light: QAVVTQEPSLTVSPGGTVTLTCGSSTGAVTTSNYANWVQEKPGQAFRGLIGGTNKRAPGTPARFSGSLLGGKAALTLSGAQPEDEAEYYCALWYSNLWVFGGGTKLTVLGQPKAAPSVTLFPPSSEELQANKATLVCLISDFYPGAVTVAWKADSSPVKAGVETTTPSKQSNNKYAASSYLSLTPEQWKSHRSYSCQVTHEGSTVEKTVAPTECS
As for B1, in assay [1], the “EC50 of T-cell killing of Hela, 24 h” value is 0.0013 nM and the “EC50 of T-cell killing of SKov-3, 24 h” value came out at 0.235 nM. Besides, in assay [2], the “EC50 of T-cell killing of HT-29, 48 h” value is 0.399 nM; the “EC50 of T-cell killing of Hela, 48 h” value was 0.0009 nM; the “EC50 of T-cell killing of SKov-3, 48 h” value was determined as 0.093 nM. Moreover, the “fold lower avidity than 16D5 WT (3 nM)” value in assay [3] worked out at 3 fold. For the same molecule, the “fold lower affinity than 16D5 WT (57 nM)” value in assay [4] came to 24.5 fold. Further, the binding result in [5] is “no binding (tested: 500 nM)”. The binding result in assay [6] was “no binding (tested: 500 nM)”. The binding result in [7] is listed as “no binding (tested: 500 nM)”. In [8], the Kd was 10 nM; the koff – broadly, the rate constant with which the complex falls apart – came to 0.0014 s⁻¹; the kon – broadly, the second-order rate constant of association – was determined as 124000 M⁻¹ s⁻¹. In assay [9], the Kd amounted to 30 nM, the koff is 0.0141 s⁻¹ and the kon was determined as 517000 M⁻¹ s⁻¹. Also, in [10], the Kd is 1400 nM. Besides, in assay [11], the Kd stood at 5600 nM.

B2: 16D5 IgG variant W96Y/K53A (HC/LC) (antibody, V domains shown)
VH: not shown
VL: QTVVTQEPSLTVSPGGTVTLTCGSSTGAVTTSNYANWVQQKPGQAPRGLIGGTNARAPGTPARFSGSLLGGKAALTLSGVQPEDEAEYYCALWYSNLWVFGGGTKLTVL
notes: IgG
As to B2, the Kd in assay [12] came to 580 nM; in [13], 660 nM.

B3: 16D5 IgG variant W98Y/wt (HC/LC) (antibody, V domains shown)
VH: not shown
VL: QAVVTQEPSLTVSPGGTVTLTCGSSTGAVTTSNYANWVQEKPGQAFRGLIGGTNKRAPGTPARFSGSLLGGKAALTLSGAQPEDEAEYYCALWYSNLWVFGGGTKLTVL
notes: IgG
Take B3: in assay [14], the Kd stood at 240 nM, the koff is 0.0328 s⁻¹ and the kon is 136000 M⁻¹ s⁻¹. Also, in [15], the Kd is 200 nM, the off-rate (koff) came to 0.0361 s⁻¹ and the kon was 171000 M⁻¹ s⁻¹. In [16], the Kd was 5400 nM.
